Data on two molecules can be found in patent US20260242492A1 (JOINT STOCK COMPANY BIOCAD, published 2026).

The target in test [1] is T1, biotinylated peptide [NH2]CEPANPSEKNSPSTQYCYSIQS[CH2CH2]biotin comprising a fragment of the human CD20 … (human, [NH2] at the N-terminus; [CH2CH2]biotin at the C-terminus (so in the source)).
T1 construct: Immobilized on streptavidin (SAX) sensors; also called CD20 peptide
T1 peptide: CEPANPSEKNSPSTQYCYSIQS
Nature of the test: BLI (Octet RED 384), biotinylated CD20 peptide on SAX sensors, antibody-like molecule as analyte, 1:1 model, global fit. How it is done: (§1) Experiments were carried out using a kinetic buffer solution (hereinafter referred to as 1×KB); volume fraction of added Tween 20 was 0.1%; mass fraction of added BSA (bovine serum albumin) was 0.1%; pH 7.4. Before the measurement, the ProA sensors were regenerated with a solution of 50 mM glycine and hydrochloric acid, pH 1.8 (5 seconds in the regenerating solution, 5 seconds in 1×KB, three repetitions).
In the case of biotinylated […], the peptide at a concentration of 2.5 μg/ml was immobilized on the surface of SAX sensors (High Precision Streptavidin (SAX) biosensors, ForteBio) for 300 seconds. The baseline was recorded in a 1×KB solution for 120 seconds. Sensors loaded with peptide were then immersed into wells containing the solution of antibody-like molecule (analyte) in 1×KB for 300 seconds. Measurements were performed for solutions with analyte (antibody-like molecule in case of CD20 peptide) at concentrations […] and 75 µg/ml. Complex dissociation was recorded in 1×KB for 60 seconds.
(§2) To obtain numerical values of kinetic constants (kon is the on/association rate constant, kdis is the dissociation rate constant, KD is the equilibrium dissociation constant or affinity constant), the resulting sensograms were processed according to the 1:1 interaction model using Global Fit (selection of one set of kon, kdis, KD constants to analyze several sensograms of different concentrations) of the ForteBio Octet Data Analysis 9.0 software.
(In general: Biolayer interferometry detects binding as a change in optical thickness at a sensor tip.)

In test [2] the target is T2, extracellular domain of the human CSF1R protein (hCSF1R_His) (human, UniProt P07333 20-512).
T2 construct: range 20-512; Made in CHO cells, molecular weight 57.4 kDa as printed; not shown: C-terminal His-tag and FLAG-tag
T2 sequence (P07333 20-512 limits assumed): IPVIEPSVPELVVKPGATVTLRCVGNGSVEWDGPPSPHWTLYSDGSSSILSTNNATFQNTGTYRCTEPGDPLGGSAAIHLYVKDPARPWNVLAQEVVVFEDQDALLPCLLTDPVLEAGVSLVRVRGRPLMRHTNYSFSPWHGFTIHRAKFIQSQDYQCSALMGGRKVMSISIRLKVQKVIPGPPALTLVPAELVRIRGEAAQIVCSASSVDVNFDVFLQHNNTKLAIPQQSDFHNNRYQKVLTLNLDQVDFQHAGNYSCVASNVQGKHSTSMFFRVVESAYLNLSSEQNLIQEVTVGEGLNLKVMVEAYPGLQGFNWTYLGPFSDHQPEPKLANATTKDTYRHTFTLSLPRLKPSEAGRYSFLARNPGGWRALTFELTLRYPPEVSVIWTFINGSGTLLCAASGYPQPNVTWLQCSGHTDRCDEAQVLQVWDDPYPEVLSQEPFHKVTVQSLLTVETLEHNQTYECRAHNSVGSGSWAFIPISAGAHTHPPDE
Kind of test: BLI (Octet RED 384), antibody-like molecule on ProA sensors, hCSF1R_His analyte 174.2 nM, 1:1 model. How it is done: as §1
In the case of the hPDlex-H6F and hCSF1R_His antigens, the Protein A (ProA) biosensors (ForteBio) were immersed in a solution with antibody-like molecules at a concentration of 10 µg/ml for 300 seconds to immobilize same. The baseline was recorded in 1×KB for 120 seconds. Sensors loaded with the antibody-like molecule were then immersed into wells containing a solution of the target antigen (analyte) in a kinetic buffer for 300 seconds. Measurements were performed for solutions with hPDlex-H6F analyte at concentrations of 10 µg/ml (485.4 nM), for solutions with hCSF1R_His analyte at concentrations of 10 µg/ml (174.2 nM). Complex dissociation in 1×KB was then detected for 600 seconds.
as §2

B1: antibody-like molecule 08-006 (binds CSF1R and CD20) (bispecific antibody, human IgG1, kappa, L234A L235A)
heavy 1: QVQLVESGGGLVRPGGSLRLSCAASEFTFDDYAMSWVRQAPGKGLEWVSAISWNGGSTNYADSVKGRFTISRDNAKNSLYLQMNSLRAEDTALYYCASTVEVAHRRLYKYLEVWGQGTLVTVSSASTKGPSVFPLAPSSKSTSGGTAALGCLVKDYFPEPVTVSWNSGALTSGVHTFPAVLQSSGLYSLSSVVTVPSSSLGTQTYICNVNHKPSNTKVDKRVEPKSCDKTHTCPPCPAPEAAGGPSVFLFPPKPKDTLYITREPEVTCVVVDVSHEDPEVKFNWYVDGVEVHNAKTKPREEQYNSTYRVVSVLTVLHQDWLNGKEYKCKVSNKALPAPIEKTISKAKGQPREPQVCTLPPSRDELTKNQVSLSCAVKGFYPSDIAVEWESNGQPENNYKTTPPVLDSDGSFFLVSKLTVDKSRWQQGNVFSCSVMHEALHNHYTQKSLSLSPGK
light 1: QAGLTQPPSVSVAPGQTARITCGGNNIGSKSVHWYQQKPGQAPVLVVYGDSDRPSGIPERFSGSNSGNTATLTISRVEAGDEADYYCQVWDISSDHVVFGGGTQLTVLRTVAAPSVFIFPPSDEQLKSGTASVVCLLNNFYPREAKVQWKVDNALQSGNSQESVTEQDSKDSTYSLSSTLTLSKADYEKHKVYACEVTHQGLSSPVTKSFNRGEC
heavy 2: not shown
light 2: DIQMTQSPSSLSASVGDRVTITCRASSSVSYMHWYQQKPGKAPKPLIYAPSNLASGVPSRFSGSGSGTDFTLTISSLQPEDFATYYCQQWSFNPPTFGQGTKVEIKQRQVKPEAWLSKGPSPGPGRLQLVCHVSGFYPKPVWVMWMRGEQEQQGTQLGDILPNADWTWYLRATLDVADGEAAGLSCRVKHSSLEGQDIILYWRGSC
notes: Four distinct chains: anti-CSF1R Fab arm (hole) and Ocrelizumab Fab-like arm with b2m/CD1b alpha3 dimerization unit (knob)
In the case of B1, in test [1], binding was characterised by a dissociation constant (Kd) of 2600 nM; the koff (commonly the rate constant with which the complex falls apart) was 0.418 s⁻¹; the kon (in general, the rate constant with which the complex forms) was found to be 161000 M⁻¹ s⁻¹. Also, in test [2], the Kd (commonly the equilibrium constant for the complex coming apart) is 1.92 nM, the koff was 0.000372 s⁻¹ and the kon was 194000 M⁻¹ s⁻¹.

B2: antibody-like molecule 08-005 (binds CD20 and CSF1R) (bispecific antibody, human IgG1, kappa, L234A L235A)
heavy 1: EVQLVESGGGLVQPGGSLRLSCAASGYTFTSYNMHWVRQAPGKGLEWVGAIYPGNGDTSYNQKFKGRFTISVDKSKNTLYLQMNSLRAEDTAVYYCARVVYYSNSYWYFDVWGQGTLVTVSSASTKGPSVFPLAPSSKSTSGGTAALGCLVKDYFPEPVTVSWNSGALTSGVHTFPAVLQSSGLYSLSSVVTVPSSSLGTQTYICNVNHKPSNTKVDKRVEPKSCDKTHTCPPCPAPEAAGGPSVFLFPPKPKDTLYITREPEVTCVVVDVSHEDPEVKFNWYVDGVEVHNAKTKPREEQYNSTYRVVSVLTVLHQDWLNGKEYKCKVSNKALPAPIEKTISKAKGQPREPQVCTLPPSRDELTKNQVSLSCAVKGFYPSDIAVEWESNGQPENNYKTTPPVLDSDGSFFLVSKLTVDKSRWQQGNVFSCSVMHEALHNHYTQKSLSLSPGK
light 1: DIQMTQSPSSLSASVGDRVTITCRASSSVSYMHWYQQKPGKAPKPLIYAPSNLASGVPSRFSGSGSGTDFTLTISSLQPEDFATYYCQQWSFNPPTFGQGTKVEIKRTVAAPSVFIFPPSDEQLKSGTASVVCLLNNFYPREAKVQWKVDNALQSGNSQESVTEQDSKDSTYSLSSTLTLSKADYEKHKVYACEVTHQGLSSPVTKSFNRGEC
heavy 2: not shown
light 2: QAGLTQPPSVSVAPGQTARITCGGNNIGSKSVHWYQQKPGQAPVLVVYGDSDRPSGIPERFSGSNSGNTATLTISRVEAGDEADYYCQVWDISSDHVVFGGGTQLTVLQRQVKPEAWLSKGPSPGPGRLQLVCHVSGFYPKPVWVMWMRGEQEQQGTQLGDILPNADWTWYLRATLDVADGEAAGLSCRVKHSSLEGQDIILYWRGSC
notes: Four distinct chains: Ocrelizumab Fab arm (hole) and anti-CSF1R Fab-like arm with b2m/CD1b alpha3 dimerization unit (knob)
Regarding B2, in test [1], the dissociation constant Kd worked out at 483 nM, the off-rate (koff) amounted to 0.0581 s⁻¹ and the kon came to 120000 M⁻¹ s⁻¹. Further, in test [2], the affinity, expressed as Kd, was 1.4 nM; the koff came out at 0.000253 s⁻¹; the on-rate (kon) came to 181000 M⁻¹ s⁻¹.
